B1: YFL010C (protein, UniProt P43582 1-211, looked up)
WW domain-containing protein …: MAQSKSNPPQVPSGWKAVFDDEYQTWYYVDLSTNSSQWEPPRGTTWPRPKGPPPGVNNEKSSRQQADQAPPPYSSQSTPQVQAGAQAQQPRYYQPQQPQYPQYPQQQRYYPQQAPMPAAAPQQAYYGTAPSTSKGSGHGGAMMGGLLGVGAGLLGGAMLEHAFDDHNYDGPDTVVVENNYYGDDAGGSDGGFDDAGGFDGGFDDGFDGSDF
B2: Abp1-1 (protein, UniProt P15891 2-592, looked up)
Actin-binding protein: ALEPIDYTTHSREIDAEYLKIVRGSDPDTTWLIISPNAKKEYEPESTGSSFHDFLQLFDETKVQYGLARVSPPGSDVEKIIIIGWCPDSAPLKTRASFAANFAAVANNLFKGYHVQVTARDEDDLDENELLMKISNAAGARYSIQTSSKQQGKASTPPVKKSFTPSKSPAPVSKKEPVKTPSPAPAAKISSRVNDNNDDDDWNEPELKERDFDQAPLKPNQSSYKPIGKIDLQKVIAEEKAKEDPRLVQKPTAAGSKIDPSSDIANLKNESKLKRDSEFNSFLGTTKPPSMTESSLKNDDDKVIKGFRNEKSPAQLWAERKAKQNSGNAETKAEAPKPEVPEDEPEGEPDVKDLKSKFEGLAASEKEEEEMENKFAPPPKKSEPTIISPKPFSKPQEPVKAEEAEQPKTDYKKIGNPLPGMHIEADNEEEPEENDDDWDDDEDEAAQPPLPSRNVASGAPVQKEEPEQEEIAPSLPSRNSIPAPKQEEAPEQAPEEEIEEEAEEAAPQLPSRSSAAPPPPPRRATPEKKPKENPWATAEYDYDAAEDNELTFVENDKIINIEFVDDDWWLGELEKDGSKGLFPSNYVSLGN
B3: Boi1 (protein, UniProt P38041 1-980, looked up)
BEM1-interacting protein 1: MSLEGNTLGKGAKSFPLYIAVNQYSKRMEDELNMKPGDKIKVITDDGEYNDGWYYGRNLRTKEEGLYPAVFTKRIAIEKPENLHKSPTQESGNSGVKYGNLNDSASNIGKVSSHQQENRYTSLKSTMSDIDKALEELRSGSVEQEVSKSPTRVPEVSTPQLQDEQTLIQEKTRNEENTTHDSLFSSTADLNLSSESLKNISKSNISTKSLEPSSESVRQLDLKMAKSWSPEEVTDYFSLVGFDQSTCNKFKEHQVSGKILLELELEHLKELEINSFGIRFQIFKEIRNIKSAIDSSSNKLDADYSTFAFENQAAQLMPAATVNRDEIQQQISSKCNKLSSESSDRKSSSVTTELQRPSSVVVNPNFKLHDPAEQILDMTEVPNLFADKDIFESPGRAPKPPSYPSPVQPPQSPSFNNRYTNNNARFPPQTTYPPKNKNPTVYSNGLIPNSSTSSDNSTGKFKFPAMNGHDSNSRKTTLTSATIPSINTVNTDESLPAISNISSNATSHHPNRNSVVYNNHKRTESGSSFVDLFNRISMLSPVKSSFDEEETKQPSKASRAVFDSARRKSSYGHSRDASLSEMKKHRRNSSILSFFSSKSQSNPTSPTKQTFTIDPAKMTSHSRSQSNSYSHARSQSYSHSRKHSLVTSPLKTSLSPINSKSNIALAHSETPTSSNNKEAVSQPSEGKHKHKHKHKSKHKHKNSSSKDGSSEEKSKKKLFSSTKESFVGSKEFKRSPSELTQKSTKSILPRSNAKKQQTSAFTEGIRSITAKESMQTADCSGWMSKKGTGAMGTWKQRFFTLHGTRLSYFTNTNDEKERGLIDITAHRVLPASDDDRLISLYAASLGKGKYCFKLVPPQPGSKKGLTFTEPRVHYFAVENKSEMKAWLSAIIKATIDIDTSVPVISSYATPTIPLSKAQTLLEEARLQTQLRDAEEEEGRDQFGWDDTQNKRNSNYPIEQDQFETSDYLESSAFEYPGGRL

How the values were obtained:
Format in all cases: cell-based, Saccharomyces cerevisiae
BBC1 = assay: DHFR-PCA on solid medium, bait BBC1 (Fig. 1B); conditions: bait BBC1, label = prey
Source text: (§1) Supplement 41467_2021_21873_MOESM8_ESM.xlsx, sheet "Fig1B" | column: medsize; medrep; Ratio; Score

ABP1 = assay: DHFR-PCA on solid medium, bait ABP1 (Fig. 1B); conditions: bait ABP1, label = prey; 2-4 replicates
Source text: as §1

Abp1 (1xFLAG) = assay: Western blot expression level of Abp1 SH3-swapped baits (Fig. S2A-B); set-up: Flag (2 bands): unit not given here; conditions: sheet FigS2A-B; for Ratio Swap/WT Flag: Flag signal relative to Abp1 WT (Abp1-1 to Abp1-4 = 1); for Flag (2 bands): Western blot Flag signal (2 bands), Abp1 WT, SH3-deleted or SH3-swapped
In short: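 Yeast expressing DHFR F[1,2]-FLAG-tagged baits grown in synthetic complete medium at 30 °C to OD600 ~1.0, lysed with glass beads in Tris pH 7.4/150 mM NaCl/1% Triton X-100. Baits immunoprecipitated on FLAG-M2 beads 120 min at 4 °C, resolved on 10% SDS-PAGE, probed with anti-FLAG HRP (ECL), signals quantified by imager.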

Abp1 PPIs = assay: DHFR-PCA of Abp1 SH3-swapped baits (Fig. 2B-D, S2C, S2F); conditions: number of interactions of Abp1 carrying the named SH3; sheet FigS2A-B
In short: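 Interactions were scored by DHFR protein-fragment complementation. DHFR F[1,2]-tagged Abp1 strains, whose SH3 was swapped for yeast or human ortholog domains, were crossed on YPD at 30 °C for 48 h with a 1536-format array of 575 prey-DHFR F[3] strains and 40 negatives, giving four replicates per pair. PCA selection lasted 4 days after double diploid selection.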

| Molecule | medrep (log2 median colony size normalized to plate background, PCA score) (BBC1; 2-4 replicates) | Ratio (SH3-deleted/WT medrep) (BBC1; only significant differences showed, PPIs completely lost have a ratio of 0.1 and the gained PPIs 2.5) | medrep (log2 median colony size normalized to plate background, PCA score) (ABP1) | Ratio Swap/WT Flag (Abp1 (1xFLAG)) | Flag (2 bands) (Abp1 (1xFLAG)) | Interactions in Abp1 (Abp1 PPIs) |
| --- | --- | --- | --- | --- | --- | --- |
| B1 | 1.4009 | 0.1 | 2.163 | – | – | – |
| B2 | – | – | – | 1 | 96800 | 86 |
| B3 | – | – | – | 0.615 | 59532 | 70 |

From paper PMC7954794, “Protein context shapes the specificity of SH3 domain-mediated interactions in vivo” (Nature Communications, 2021)
